The chains are these.
B1: Chromobox protein homolog 5 (Mus musculus), Q61686 (parent)
chain: MGKKTKRTADSSSSEDEEEYVVEKVLDRRMVKGQVEYLLKWKGFSEEHNTWEPEKNLDCPELISEFMKKYKKMKEGENNKPREKSEGNKRKSSFSNSADDIKSKKKREQSNDIARGFERGLEPEKIIGATDSCGDLMFLMKWKDTDEADLVLAKEANVKCPQIVIAFYEERLTWHAYPEDAENKEKESAKS
partner: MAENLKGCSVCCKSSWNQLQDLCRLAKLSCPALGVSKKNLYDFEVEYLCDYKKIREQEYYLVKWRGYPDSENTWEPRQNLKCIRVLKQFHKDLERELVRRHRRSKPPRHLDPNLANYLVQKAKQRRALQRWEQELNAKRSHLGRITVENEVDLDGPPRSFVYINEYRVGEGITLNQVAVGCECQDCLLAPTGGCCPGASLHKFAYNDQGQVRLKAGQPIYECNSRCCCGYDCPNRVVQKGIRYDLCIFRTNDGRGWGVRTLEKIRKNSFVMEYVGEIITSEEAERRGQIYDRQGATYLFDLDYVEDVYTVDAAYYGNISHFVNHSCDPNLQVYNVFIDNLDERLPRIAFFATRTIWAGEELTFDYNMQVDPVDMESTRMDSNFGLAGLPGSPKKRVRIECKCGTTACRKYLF

This experiment covers variants of B1. Particulars: with suv91_mouse Suv39h1, O54864.
Consider I165E;Y168E, for which the “effect of a mutation on the interaction” value is given as “disrupting interaction”.

(Values after IntAct's records for PubMed 12565857.)
